Values quoted from earlier work as cited in article PMC4298871.

Target: M6P/IGF-IIR (Homo sapiens) (UniProt P11717)
Test: SPR

Sequence of UniProt P11717 (P11717 41-2491): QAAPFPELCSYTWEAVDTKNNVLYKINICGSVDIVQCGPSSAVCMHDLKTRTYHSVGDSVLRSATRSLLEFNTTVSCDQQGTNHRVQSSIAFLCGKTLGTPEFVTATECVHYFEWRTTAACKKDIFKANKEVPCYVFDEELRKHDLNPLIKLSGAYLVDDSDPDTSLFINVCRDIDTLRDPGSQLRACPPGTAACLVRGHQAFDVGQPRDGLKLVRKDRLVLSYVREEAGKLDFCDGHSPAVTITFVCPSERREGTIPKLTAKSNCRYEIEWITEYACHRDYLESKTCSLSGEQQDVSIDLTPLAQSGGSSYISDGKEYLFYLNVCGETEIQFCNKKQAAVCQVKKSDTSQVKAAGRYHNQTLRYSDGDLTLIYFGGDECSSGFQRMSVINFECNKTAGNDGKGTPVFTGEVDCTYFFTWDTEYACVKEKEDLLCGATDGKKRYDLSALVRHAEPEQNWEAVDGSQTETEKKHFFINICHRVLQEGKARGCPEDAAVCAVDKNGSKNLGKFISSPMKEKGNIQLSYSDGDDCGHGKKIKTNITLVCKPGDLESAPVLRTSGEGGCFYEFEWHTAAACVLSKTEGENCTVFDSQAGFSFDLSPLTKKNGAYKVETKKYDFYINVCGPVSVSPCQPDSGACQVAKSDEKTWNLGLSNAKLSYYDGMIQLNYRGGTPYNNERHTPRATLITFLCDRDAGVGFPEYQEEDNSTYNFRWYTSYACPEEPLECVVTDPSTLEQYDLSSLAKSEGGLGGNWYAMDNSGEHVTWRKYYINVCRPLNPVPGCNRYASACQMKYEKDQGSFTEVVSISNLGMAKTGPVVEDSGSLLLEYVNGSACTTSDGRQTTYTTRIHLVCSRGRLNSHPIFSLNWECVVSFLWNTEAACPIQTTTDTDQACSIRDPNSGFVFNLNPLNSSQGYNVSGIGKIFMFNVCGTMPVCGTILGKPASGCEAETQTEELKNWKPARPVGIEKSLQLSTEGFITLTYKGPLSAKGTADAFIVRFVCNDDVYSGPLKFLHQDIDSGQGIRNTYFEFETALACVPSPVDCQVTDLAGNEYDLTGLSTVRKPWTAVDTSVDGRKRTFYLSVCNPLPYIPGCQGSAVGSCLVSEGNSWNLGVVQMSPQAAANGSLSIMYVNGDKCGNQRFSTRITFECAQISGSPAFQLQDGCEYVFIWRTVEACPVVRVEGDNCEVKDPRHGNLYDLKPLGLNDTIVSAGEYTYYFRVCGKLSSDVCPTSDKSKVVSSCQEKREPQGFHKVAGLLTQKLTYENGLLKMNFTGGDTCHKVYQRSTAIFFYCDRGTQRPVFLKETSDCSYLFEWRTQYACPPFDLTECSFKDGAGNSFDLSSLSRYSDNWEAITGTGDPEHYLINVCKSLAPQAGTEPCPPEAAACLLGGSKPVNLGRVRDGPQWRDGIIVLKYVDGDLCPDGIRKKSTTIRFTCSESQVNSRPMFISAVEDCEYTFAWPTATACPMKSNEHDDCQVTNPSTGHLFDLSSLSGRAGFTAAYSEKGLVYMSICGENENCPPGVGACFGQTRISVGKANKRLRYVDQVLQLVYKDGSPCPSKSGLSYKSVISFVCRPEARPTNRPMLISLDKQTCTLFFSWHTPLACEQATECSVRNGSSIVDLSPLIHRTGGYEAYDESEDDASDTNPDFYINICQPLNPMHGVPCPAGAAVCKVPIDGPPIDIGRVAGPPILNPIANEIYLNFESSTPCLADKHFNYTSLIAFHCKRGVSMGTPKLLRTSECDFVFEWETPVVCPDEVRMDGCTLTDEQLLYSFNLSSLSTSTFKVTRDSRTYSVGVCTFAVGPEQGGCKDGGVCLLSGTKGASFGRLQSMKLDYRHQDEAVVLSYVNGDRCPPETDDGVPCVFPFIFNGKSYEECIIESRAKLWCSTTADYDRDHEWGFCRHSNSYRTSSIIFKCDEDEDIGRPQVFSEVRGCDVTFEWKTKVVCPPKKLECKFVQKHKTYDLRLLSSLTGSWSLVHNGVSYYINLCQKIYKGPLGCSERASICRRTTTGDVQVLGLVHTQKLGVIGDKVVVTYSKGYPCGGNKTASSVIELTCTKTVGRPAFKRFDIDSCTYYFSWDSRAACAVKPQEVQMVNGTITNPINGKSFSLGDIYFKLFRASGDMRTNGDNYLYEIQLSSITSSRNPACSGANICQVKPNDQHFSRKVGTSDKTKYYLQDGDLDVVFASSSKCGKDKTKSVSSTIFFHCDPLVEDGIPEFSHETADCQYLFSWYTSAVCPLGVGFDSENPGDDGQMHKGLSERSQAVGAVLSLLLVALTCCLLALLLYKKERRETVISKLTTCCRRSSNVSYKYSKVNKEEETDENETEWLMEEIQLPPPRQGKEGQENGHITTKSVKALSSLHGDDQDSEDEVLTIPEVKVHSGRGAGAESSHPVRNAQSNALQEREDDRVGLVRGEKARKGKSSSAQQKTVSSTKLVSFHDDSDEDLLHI

Kd: 35.9 µM
Substance: DPP-4 (from UniProt P27487)
